{"source": "patent US20120141527A1", "binders": {"B1": {"name": "FITC-SAH-gp41(626-662)(A, F) (peptide)", "peptide": "{FITC-βAla}-LTWAEWDAEINNYTSLIHSLIEESQNQAEKNAQELLE-NH2", "modifications": "staple (positions not given here); also: two hydrocarbon staples from S5 residues, positions not given here"}}, "target": "doubly-mutant HR1 peptides", "assay": "native PAGE complex assembly assay, densitometry of fluorescence scans", "note": "* marks the point of attachment. FITC = O=C1OC2(c3ccc(O)cc3Oc3cc(O)ccc32)c2ccc(NC(=S)*)cc21; βAla = NCCC(=O)O"}
{"binder": "B1", "values": [{"measurement": "fold enhancement in binding activity compared to FITC-T649v", "result": "< 2", "unit": "fold"}]}
